Experimental data taken from paper PMC9926331 (Journal of Molecular Cell Biology, 2022).

Target: GST-TIP60 (human, UniProt Q92993 1-513)
Assay: pull-down

GST-TIP60, sequence (Q92993 whole entry): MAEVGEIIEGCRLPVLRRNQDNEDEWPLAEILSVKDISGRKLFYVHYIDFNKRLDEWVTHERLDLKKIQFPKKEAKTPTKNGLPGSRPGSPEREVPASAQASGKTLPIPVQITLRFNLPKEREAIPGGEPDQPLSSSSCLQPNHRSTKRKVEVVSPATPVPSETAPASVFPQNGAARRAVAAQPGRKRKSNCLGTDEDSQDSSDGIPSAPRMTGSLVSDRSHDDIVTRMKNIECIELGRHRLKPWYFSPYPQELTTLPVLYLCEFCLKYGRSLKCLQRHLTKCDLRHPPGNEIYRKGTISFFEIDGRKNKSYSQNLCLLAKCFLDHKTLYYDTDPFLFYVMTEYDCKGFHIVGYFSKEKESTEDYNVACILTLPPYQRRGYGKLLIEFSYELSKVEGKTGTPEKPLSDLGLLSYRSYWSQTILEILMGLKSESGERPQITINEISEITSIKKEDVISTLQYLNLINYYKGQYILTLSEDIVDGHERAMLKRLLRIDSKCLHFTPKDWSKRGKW

- binding result: binds
B1: MBP-Nup62-CT (domain or fragment, human, UniProt P37198 329-522, looked up)
chain: TYAQLESLINKWSLELEDQERHFLQQATQVNAWDRTLIENGEKITSLHREVEKVKLDQKRLDQELDFILSQQKELEDLLSPLEELVKEQSGTIYLQHADEEREKTYKLAENIDAQLKRMAQDLKDIIEHLNTSGAPADTSDPLQQICKILNAHMDSLQWIDQNSALLQRKVEEVTKVCEGRRKEQERSFRITFD
